From US20220064329A1 (Novo Nordisk, published 2022)

T1: recombinant human activated Factor VII (FVIIa) (human, UniProt P08709 61-212; P08709 213-466, ten glutamate residues of the Gla domain may be gamma-carboxylated)
T1 construct: chains tethered by a disulfide bond; also called Factor VIIa; rFVIIa
T1 sequence 1: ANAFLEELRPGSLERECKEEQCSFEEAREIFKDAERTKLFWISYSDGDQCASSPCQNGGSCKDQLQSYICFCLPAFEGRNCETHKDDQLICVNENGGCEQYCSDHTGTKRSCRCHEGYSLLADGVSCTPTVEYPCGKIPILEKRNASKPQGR
T1 sequence 2: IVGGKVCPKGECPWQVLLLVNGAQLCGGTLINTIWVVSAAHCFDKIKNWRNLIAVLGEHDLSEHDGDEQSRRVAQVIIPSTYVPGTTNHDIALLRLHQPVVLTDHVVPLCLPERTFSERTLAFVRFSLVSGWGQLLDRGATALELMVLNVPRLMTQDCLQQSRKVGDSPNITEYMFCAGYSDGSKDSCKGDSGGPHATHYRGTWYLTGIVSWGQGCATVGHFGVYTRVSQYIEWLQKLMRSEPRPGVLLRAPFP

B1: VH SEQ ID NO 538 / VL SEQ ID NO 406 (antibody, IgG4, V domains shown)
VH: QVQLQESGPGLVEPSQTLSLTCTVSGYSITSDSAWSWIRQPPGKKLEWIGYIQYSGSTNYNPSLKSRVTISRDTSKNQFSLKLSSVTAADTAVYYCARSVNYYGNSFAVGYWGQGTLVTVSS
VL: EIVLTQSPATLSLSPGERATLSCRASQGVSDYLAWYQQKPGQAPRLLIKYASQPATGIPARFSGSGSGTDFTLTISSLEPEDFAVYYCQNGHSFPLTFGAGTKLEIK
notes: humanized 11F2; IgG4 S228P/kappa
B2: VH SEQ ID NO 538 / VL SEQ ID NO 414 (antibody, IgG4, V domains shown)
VH: QVQLQESGPGLVEPSQTLSLTCTVSGYSITSDSAWSWIRQPPGKKLEWIGYIQYSGSTNYNPSLKSRVTISRDTSKNQFSLKLSSVTAADTAVYYCARSVNYYGNSFAVGYWGQGTLVTVSS
VL: EIVLTQSPATLSLSPGERATLSCRASQGVSDYLAWYQQKPGQAPRLLIKYASQPATGIPARFSGSGSGTDFTLTISSLEPEDFAVYYCQNGHSFPLTFGQGTKLEIK
notes: as for B1
B3: VH SEQ ID NO 538 / VL SEQ ID NO 422 (antibody, IgG4, V domains shown)
VH: QVQLQESGPGLVEPSQTLSLTCTVSGYSITSDSAWSWIRQPPGKKLEWIGYIQYSGSTNYNPSLKSRVTISRDTSKNQFSLKLSSVTAADTAVYYCARSVNYYGNSFAVGYWGQGTLVTVSS
VL: EIVLTQSPATLSLSPGERATLSCRASQGVSDYLAWYQQKPGQAPRLLIKYASQPATGIPARFSGSGSGTDFTLTISSLEPEDFAVYYCQQGHSFPLTFGQGTKLEIK
notes: as for B1
B4: VH SEQ ID NO 538 / VL SEQ ID NO 430 (antibody, IgG4, V domains shown)
VH: QVQLQESGPGLVEPSQTLSLTCTVSGYSITSDSAWSWIRQPPGKKLEWIGYIQYSGSTNYNPSLKSRVTISRDTSKNQFSLKLSSVTAADTAVYYCARSVNYYGNSFAVGYWGQGTLVTVSS
VL: EIVLTQSPATLSLSPGERATLSCRASQGVSDYLAWYQQKPGQAPRLLIKYASQPATGIPARFSGSGSGTDFTLTISSLEPEDFGVYYCQNGHSFPLTFGQGTKLEIK
notes: as for B1
B5: VH SEQ ID NO 538 / VL SEQ ID NO 438 (antibody, IgG4, V domains shown)
VH: QVQLQESGPGLVEPSQTLSLTCTVSGYSITSDSAWSWIRQPPGKKLEWIGYIQYSGSTNYNPSLKSRVTISRDTSKNQFSLKLSSVTAADTAVYYCARSVNYYGNSFAVGYWGQGTLVTVSS
VL: EIVLTQSPATLSLSPGERATLSCRASQGVSDYLAWYQQKPGQAPRLLIKYASQPATGIPARFSGSGSGTDFTLTISSLEPEDVAVYYCQNGHSFPLTFGQGTKLEIK
notes: as for B1
B6: VH SEQ ID NO 538 / VL SEQ ID NO 446 (antibody, IgG4, V domains shown)
VH: QVQLQESGPGLVEPSQTLSLTCTVSGYSITSDSAWSWIRQPPGKKLEWIGYIQYSGSTNYNPSLKSRVTISRDTSKNQFSLKLSSVTAADTAVYYCARSVNYYGNSFAVGYWGQGTLVTVSS
VL: EIVLTQSPATLSLSPGERATLSCRASQGVSDYLAWYQQKPGQAPRLLIKYTSQPATGIPARFSGSGSGTDFTLTISSLEPEDFAVYYCQNGHSFPLTFGQGTKLEIK
notes: as for B1
B7: VH SEQ ID NO 538 / VL SEQ ID NO 454 (antibody, IgG4, V domains shown)
VH: QVQLQESGPGLVEPSQTLSLTCTVSGYSITSDSAWSWIRQPPGKKLEWIGYIQYSGSTNYNPSLKSRVTISRDTSKNQFSLKLSSVTAADTAVYYCARSVNYYGNSFAVGYWGQGTLVTVSS
VL: EIVLTQSPATLSLSPGERATLSCRASQGVSDYLHWYQQKPGEAPRLLIKYASQPATGIPARFSGSGSGTDFTLTISSLEPEDFAVYYCQNGHSFPLTFGQGTKLEIK
notes: as for B1
B8: VH SEQ ID NO 538 / VL SEQ ID NO 462 (antibody, IgG4, V domains shown)
VH: QVQLQESGPGLVEPSQTLSLTCTVSGYSITSDSAWSWIRQPPGKKLEWIGYIQYSGSTNYNPSLKSRVTISRDTSKNQFSLKLSSVTAADTAVYYCARSVNYYGNSFAVGYWGQGTLVTVSS
VL: EIVLTQSPATLSLSPGERATLSCRASQGVSDYLHWYQQKPGQAPRLLIKYASQPATGIPARFSGSGSGTDFTLTISSLEPEDFAVYYCQNGHSFPLTFGAGTKLEIK
notes: as for B1
B9: VH SEQ ID NO 538 / VL SEQ ID NO 470 (antibody, IgG4, V domains shown)
VH: QVQLQESGPGLVEPSQTLSLTCTVSGYSITSDSAWSWIRQPPGKKLEWIGYIQYSGSTNYNPSLKSRVTISRDTSKNQFSLKLSSVTAADTAVYYCARSVNYYGNSFAVGYWGQGTLVTVSS
VL: EIVLTQSPATLSLSPGERATLSCRASQGVSDYLHWYQQKPGQAPRLLIKYASQPATGIPARFSGSGSGTDFTLTISSLEPEDFAVYYCQNGHSFPLTFGQGTKLEIK
notes: as for B1
B10: VH SEQ ID NO 538 / VL SEQ ID NO 478 (antibody, IgG4, V domains shown)
VH: QVQLQESGPGLVEPSQTLSLTCTVSGYSITSDSAWSWIRQPPGKKLEWIGYIQYSGSTNYNPSLKSRVTISRDTSKNQFSLKLSSVTAADTAVYYCARSVNYYGNSFAVGYWGQGTLVTVSS
VL: EIVLTQSPATLSLSPGERATLSCRASQGVSDYLHWYQQKPGQAPRLLIKYASQPATGIPARFSGSGSGTDFTLTISSLEPEDFAVYYCQQGHSFPLTFGQGTKLEIK
notes: as for B1
B11: VH SEQ ID NO 538 / VL SEQ ID NO 486 (antibody, IgG4, V domains shown)
VH: QVQLQESGPGLVEPSQTLSLTCTVSGYSITSDSAWSWIRQPPGKKLEWIGYIQYSGSTNYNPSLKSRVTISRDTSKNQFSLKLSSVTAADTAVYYCARSVNYYGNSFAVGYWGQGTLVTVSS
VL: EIVLTQSPATLSLSPGERATLSCRASQGVSDYLHWYQQKPGQAPRLLIKYASQPATGIPARFSGSGSGTDFTLTISSLEPEDFGVYYCQNGHSFPLTFGQGTKLEIK
notes: as for B1
B12: VH SEQ ID NO 538 / VL SEQ ID NO 494 (antibody, IgG4, V domains shown)
VH: QVQLQESGPGLVEPSQTLSLTCTVSGYSITSDSAWSWIRQPPGKKLEWIGYIQYSGSTNYNPSLKSRVTISRDTSKNQFSLKLSSVTAADTAVYYCARSVNYYGNSFAVGYWGQGTLVTVSS
VL: EIVLTQSPATLSLSPGERATLSCRASQGVSDYLHWYQQKPGQAPRLLIKYASQPATGIPARFSGSGSGTDFTLTISSLEPEDVAVYYCQNGHSFPLTFGQGTKLEIK
notes: as for B1
B13: VH SEQ ID NO 538 / VL SEQ ID NO 502 (antibody, IgG4, V domains shown)
VH: QVQLQESGPGLVEPSQTLSLTCTVSGYSITSDSAWSWIRQPPGKKLEWIGYIQYSGSTNYNPSLKSRVTISRDTSKNQFSLKLSSVTAADTAVYYCARSVNYYGNSFAVGYWGQGTLVTVSS
VL: EIVLTQSPATLSLSPGERATLSCRASQGVSDYLHWYQQKPGQAPRLLIKYTSQPATGIPARFSGSGSGTDFTLTISSLEPEDFAVYYCQNGHSFPLTFGQGTKLEIK
notes: as for B1
B14: VH SEQ ID NO 546 / VL SEQ ID NO 310 (antibody, IgG4, V domains shown)
VH: QVQLQESGPGLVEPSQTLSLTCTVSGYSITSDSAWSWIRQPPGKKLEWIGYIQYSGSTNYNPSLKSRVTISRDTSKNQFSLKLSSVTAADTAVYYCARSVNYYGNSFAVGYWGQGTSVTVSS
VL: EIVLTQSPATLSLSPGERATLSCRASQGISDYLAWYQQKPGQAPRLLIKYASQPATGIPARFSGSGSGTDFTLTISSLEPEDFAVYYCQNGHSFPLTFGQGTKLEIK
notes: as for B1
B15: VH SEQ ID NO 546 / VL SEQ ID NO 318 (antibody, IgG4, V domains shown)
VH: QVQLQESGPGLVEPSQTLSLTCTVSGYSITSDSAWSWIRQPPGKKLEWIGYIQYSGSTNYNPSLKSRVTISRDTSKNQFSLKLSSVTAADTAVYYCARSVNYYGNSFAVGYWGQGTSVTVSS
VL: EIVLTQSPATLSLSPGERATLSCRASQGISDYLHWYQQKPGEAPRLLIKYTSQPATGIPARFSGSGSGTDFTLTISSLEPEDFAVYYCQNGHSFPLTFGQGTKLEIK
notes: as for B1
B16: VH SEQ ID NO 546 / VL SEQ ID NO 326 (antibody, IgG4, V domains shown)
VH: QVQLQESGPGLVEPSQTLSLTCTVSGYSITSDSAWSWIRQPPGKKLEWIGYIQYSGSTNYNPSLKSRVTISRDTSKNQFSLKLSSVTAADTAVYYCARSVNYYGNSFAVGYWGQGTSVTVSS
VL: EIVLTQSPATLSLSPGERATLSCRASQGISDYLHWYQQKPGEAPRLLIKYTSQPATGIPARFSGSGSGTDFTLTISSLEPEDFGVYYCQNGHSFPLTFGAGTKLELK
notes: as for B1
B17: VH SEQ ID NO 546 / VL SEQ ID NO 334 (antibody, IgG4, V domains shown)
VH: QVQLQESGPGLVEPSQTLSLTCTVSGYSITSDSAWSWIRQPPGKKLEWIGYIQYSGSTNYNPSLKSRVTISRDTSKNQFSLKLSSVTAADTAVYYCARSVNYYGNSFAVGYWGQGTSVTVSS
VL: EIVLTQSPATLSLSPGERATLSCRASQGISDYLHWYQQKPGQAPRLLIKYASQPATGIPARFSGSGSGTDFTLTISSLEPEDFAVYYCQNGHSFPLTFGQGTKLEIK
notes: as for B1
B18: VH SEQ ID NO 546 / VL SEQ ID NO 342 (antibody, IgG4, V domains shown)
VH: QVQLQESGPGLVEPSQTLSLTCTVSGYSITSDSAWSWIRQPPGKKLEWIGYIQYSGSTNYNPSLKSRVTISRDTSKNQFSLKLSSVTAADTAVYYCARSVNYYGNSFAVGYWGQGTSVTVSS
VL: EIVLTQSPATLSLSPGERATLSCRASQGISDYLHWYQQKPGQAPRLLIKYTSQPATGIPARFSGSGSGRDFTLTISSLEPEDFAVYYCQNGHSFPLTFGAGTKLELK
notes: as for B1
B19: VH SEQ ID NO 546 / VL SEQ ID NO 350 (antibody, IgG4, V domains shown)
VH: QVQLQESGPGLVEPSQTLSLTCTVSGYSITSDSAWSWIRQPPGKKLEWIGYIQYSGSTNYNPSLKSRVTISRDTSKNQFSLKLSSVTAADTAVYYCARSVNYYGNSFAVGYWGQGTSVTVSS
VL: EIVLTQSPATLSLSPGERATLSCRASQGISDYLHWYQQKPGQAPRLLIKYTSQPATGIPARFSGSGSGTDFTLTISSLEPEDFAVYYCQNGHSFPLTFGAGTKLELK
notes: as for B1
B20: VH SEQ ID NO 546 / VL SEQ ID NO 358 (antibody, IgG4, V domains shown)
VH: QVQLQESGPGLVEPSQTLSLTCTVSGYSITSDSAWSWIRQPPGKKLEWIGYIQYSGSTNYNPSLKSRVTISRDTSKNQFSLKLSSVTAADTAVYYCARSVNYYGNSFAVGYWGQGTSVTVSS
VL: EIVLTQSPATLSLSPGERATLSCRASQGISDYLHWYQQKPGQAPRLLIKYTSQPATGIPARFSGSGSGTDFTLTISSLEPEDFAVYYCQNGHSFPLTFGQGTKLEIK
notes: as for B1

Each binder was assayed against T1, recombinant human activated Factor VII … (assay: BLI (Fortebio)).

Binder | Kd
B1 | 6.1 nM
B2 | 6.9 nM
B3 | 21 nM
B4 | 8.3 nM
B5 | 8.3 nM
B6 | 12 nM
B7 | 1.2 nM
B8 | 1.3 nM
B9 | 1 nM
B10 | 1.8 nM
B11 | 1 nM
B12 | 1.1 nM
B13 | 0.88 nM
B14 | 3.2 nM
B15 | 0.86 nM
B16 | 0.81 nM
B17 | 1.1 nM
B18 | 1.2 nM
B19 | 0.96 nM
B20 | 0.99 nM
